Publication PMC7367873, “Dissecting the sequence determinants for dephosphorylation by the catalytic subunits of phosphatases PP1 and PP2A” (Nature Communications, 2020)

B1: HNRNPR (protein, UniProt O43390 2-633, looked up)
Heterogeneous nuclear …: ANQVNGNAVQLKEEEEPMDTSSVTHTEHYKTLIEAGLPQKVAERLDEIFQTGLVAYVDLDERAIDALREFNEEGALSVLQQFKESDLSHVQNKSAFLCGVMKTYRQREKQGSKVQESTKGPDEAKIKALLERTGYTLDVTTGQRKYGGPPPDSVYSGVQPGIGTEVFVGKIPRDLYEDELVPLFEKAGPIWDLRLMMDPLSGQNRGYAFITFCGKEAAQEAVKLCDSYEIRPGKHLGVCISVANNRLFVGSIPKNKTKENILEEFSKVTEGLVDVILYHQPDDKKKNRGFCFLEYEDHKSAAQARRRLMSGKVKVWGNVVTVEWADPVEEPDPEVMAKVKVLFVRNLATTVTEEILEKSFSEFGKLERVKKLKDYAFVHFEDRGAAVKAMDEMNGKEIEGEEIEIVLAKPPDKKRKERQAARQASRSTAYEDYYYHPPPRMPPPIRGRGRGGGRGGYGYPPDYYGYEDYYDDYYGYDYHDYRGGYEDPYYGYDDGYAVRGRGGGRGGRGAPPPPRGRGAPPPRGRAGYSQRGAPLGPPRGSRGGRGGPAQQQRGRGSRGSRGNRGGNVGGKRKADGYNQPDSKRRQTNNQQNWGSQPIAQQPLQQGGDYSGNYGYNNDNQEFYQDTYGQQWK
B2: OSBPL3 (protein, UniProt Q9H4L5 1-887, looked up)
Oxysterol-binding …: MMSDEKNLGVSQKLVSPSRSTSSCSSKQGSRQDSWEVVEGLRGEMNYTQEPPVQKGFLLKKRKWPLKGWHKRFFYLDKGILKYAKSQTDIEREKLHGCIDVGLSVMSVKKSSKCIDLDTEEHIYHLKVKSEEVFDEWVSKLRHHRMYRQNEIAMFPHEVNHFFSGSTITDSSSGVFDSISSRKRSSISKQNLFQTGSNVSFSCGGETRVPLWLQSSEDMEKCSKDLAHCHAYLVEMSQLLQSMDVLHRTYSAPAINAIQGGSFESPKKEKRSHRRWRSRAIGKDAKGTLQVPKPFSGPVRLHSSNPNLSTLDFGEEKNYSDGSETSSEFSKMQEDLCHIAHKVYFTLRSAFNIMSAEREKLKQLMEQDASSSPSAQVIGLKNALSSALAQNTDLKERLRRIHAESLLLDSPAVAKSGDNLAEENSRDENRALVHQLSNESRLSITDSLSEFFDAQEVLLSPSSSENEISDDDSYVSDISDNLSLDNLSNDLDNERQTLGPVLDSGREAKSRRRTCLPAPCPSSSNISLWNILRNNIGKDLSKVAMPVELNEPLNTLQRLCEELEYSELLDKAAQIPSPLERMVYVAAFAISAYASSYYRAGSKPFNPVLGETYECIREDKGFQFFSEQVSHHPPISACHAESRNFVFWQDVRWKNKFWGKSMEIVPIGTTHVTLPVFGDHFEWNKVTSCIHNILSGQRWIEHYGEIVIKNLHDDSCYCKVNFIKAKYWSTNAHEIEGTVFDRSGKAVHRLFGKWHESIYCGGGSSSACVWRANPMPKGYEQYYSFTQFALELNEMDPSSKSLLPPTDTRFRPDQRFLEEGNLEEAEIQKQRIEQLQRERRRVLEENHVEHQPRFFRKSDDDSWVSNGTYLELRKDLGFSKLDHPVLW
B3: PWP2 (protein, UniProt Q15269 1-919, looked up)
Periodic tryptophan protein 2 …: MKFAYRFSNLLGTVYRRGNLNFTCDGNSVISPVGNRVTVFDLKNNKSDTLPLATRYNVKCVGLSPDGRLAIIVDEGGDALLVSLVCRSVLHHFHFKGSVHSVSFSPDGRKFVVTKGNIAQMYHAPGKKREFNAFVLDKTYFGPYDETTCIDWTDDSRCFVVGSKDMSTWVFGAERWDNLIYYALGGHKDAIVACFFESNSLDLYSLSQDGVLCMWQCDTPPEGLRLKPPAGWKADLLQREEEEEEEEDQEGDRETTIRGKATPAEEEKTGKVKYSRLAKYFFNKEGDFNNLTAAAFHKKSHLLVTGFASGIFHLHELPEFNLIHSLSISDQSIASVAINSSGDWIAFGCSGLGQLLVWEWQSESYVLKQQGHFNSMVALAYSPDGQYIVTGGDDGKVKVWNTLSGFCFVTFTEHSSGVTGVTFTATGYVVVTSSMDGTVRAFDLHRYRNFRTFTSPRPTQFSCVAVDASGEIVSAGAQDSFEIFVWSMQTGRLLDVLSGHEGPISGLCFNPMKSVLASASWDKTVRLWDMFDSWRTKETLALTSDALAVTFRPDGAELAVATLNSQITFWDPENAVQTGSIEGRHDLKTGRKELDKITAKHAAKGKAFTALCYSADGHSILAGGMSKFVCIYHVREQILMKRFEISCNLSLDAMEEFLNRRKMTEFGNLALIDQDAGQEDGVAIPLPGVRKGDMSSRHFKPEIRVTSLRFSPTGRCWAATTTEGLLIYSLDTRVLFDPFELDTSVTPGRVREALRQQDFTRAILMALRLNESKLVQEALEAVPRGEIEVVTSSLPELYVEKVLEFLASSFEVSRHLEFYLLWTHKLLMLHGQKLKSRAGTLLPVIQFLQKSIQRHLDDLSKLCSWNHYNMQYALAVSKQRGTKRSLDPLGSEEEAEASEDDSLHLLGGGGRDSEEEMLA
B4: HNRNPUL1 (protein, UniProt Q9BUJ2 1-856, looked up)
Heterogeneous nuclear …: MDVRRLKVNELREELQRRGLDTRGLKAELAERLQAALEAEEPDDERELDADDEPGRPGHINEEVETEGGSELEGTAQPPPPGLQPHAEPGGYSGPDGHYAMDNITRQNQFYDTQVIKQENESGYERRPLEMEQQQAYRPEMKTEMKQGAPTSFLPPEASQLKPDRQQFQSRKRPYEENRGRGYFEHREDRRGRSPQPPAEEDEDDFDDTLVAIDTYNCDLHFKVARDRSSGYPLTIEGFAYLWSGARASYGVRRGRVCFEMKINEEISVKHLPSTEPDPHVVRIGWSLDSCSTQLGEEPFSYGYGGTGKKSTNSRFENYGDKFAENDVIGCFADFECGNDVELSFTKNGKWMGIAFRIQKEALGGQALYPHVLVKNCAVEFNFGQRAEPYCSVLPGFTFIQHLPLSERIRGTVGPKSKAECEILMMVGLPAAGKTTWAIKHAASNPSKKYNILGTNAIMDKMRVMGLRRQRNYAGRWDVLIQQATQCLNRLIQIAARKKRNYILDQTNVYGSAQRRKMRPFEGFQRKAIVICPTDEDLKDRTIKRTDEEGKDVPDHAVLEMKANFTLPDVGDFLDEVLFIELQREEADKLVRQYNEEGRKAGPPPEKRFDNRGGGGFRGRGGGGGFQRYENRGPPGGNRGGFQNRGGGSGGGGNYRGGFNRSGGGGYSQNRWGNNNRDNNNSNNRGSYNRAPQQQPPPQQPPPPQPPPQQPPPPPSYSPARNPPGASTYNKNSNIPGSSANTSTPTVSSYSPPQPSYSQPPYNQGGYSQGYTAPPPPPPPPPAYNYGSYGGYNPAPYTPPPPPTAQTYPQPSYNQYQQYAQQWNQYYQNQGQWPPYYGNYDYGSYSGNTQGGTSTQ
B5: ABCF3 (protein, UniProt Q9NUQ8 2-709, looked up)
ATP-binding cassette …: ATCAEILRSEFPEIDGQVFDYVTGVLHSGSADFESVDDLVEAVGELLQEVSGDSKDDAGIRAVCQRMYNTLRLAEPQSQGNSQVLLDAPIQLSKITENYDCGTKLPGLLKREQSSTVNAKKLEKAEARLKAKQEKRSEKDTLKTSNPLVLEEASASQAGSRKESRLESSGKNKSYDVRIENFDVSFGDRVLLAGADVNLAWGRRYGLVGRNGLGKTTLLKMLATRSLRVPAHISLLHVEQEVAGDDTPALQSVLESDSVREDLLRRERELTAQIAAGRAEGSEAAELAEIYAKLEEIEADKAPARASVILAGLGFTPKMQQQPTREFSGGWRMRLALARALFARPDLLLLDEPTNMLDVRAILWLENYLQTWPSTILVVSHDRNFLNAIATDIIHLHSQRLDGYRGDFETFIKSKQERLLNQQREYEAQQQYRQHIQVFIDRFRYNANRASQVQSKLKMLEKLPELKPVDKESEVVMKFPDGFEKFSPPILQLDEVDFYYDPKHVIFSRLSVSADLESRICVVGENGAGKSTMLKLLLGDLAPVRGIRHAHRNLKIGYFSQHHVEQLDLNVSAVELLARKFPGRPEEEYRHQLGRYGISGELAMRPLASLSGGQKSRVAFAQMTMPCPNFYILDEPTNHLDMETIEALGRALNNFRGGVILVSHDERFIRLVCRELWVCEGGGVTRVEGGFDQYRALLQEQFRREGFL
B6: IARS (protein, UniProt P41252 1-1262, looked up)
Isoleucine--tRNA ligase, …: MLQQVPENINFPAEEEKILEFWTEFNCFQECLKQSKHKPKFTFYDGPPFATGLPHYGHILAGTIKDIVTRYAHQSGFHVDRRFGWDCHGLPVEYEIDKTLGIRGPEDVAKMGITEYNNQCRAIVMRYSAEWKSTVSRLGRWIDFDNDYKTLYPQFMESVWWVFKQLYDKGLVYRGVKVMPFSTACNTPLSNFESHQNYKDVQDPSVFVTFPLEEDETVSLVAWTTTPWTLPSNLAVCVNPEMQYVKIKDVARGRLLILMEARLSALYKLESDYEILERFPGAYLKGKKYRPLFDYFLKCKENGAFTVLVDNYVKEEEGTGVVHQAPYFGAEDYRVCMDFNIIRKDSLPVCPVDASGCFTTEVTDFAGQYVKDADKSIIRTLKEQGRLLVATTFTHSYPFCWRSDTPLIYKAVPSWFVRVENMVDQLLRNNDLCYWVPELVREKRFGNWLKDARDWTISRNRYWGTPIPLWVSDDFEEVVCIGSVAELEELSGAKISDLHRESVDHLTIPSRCGKGSLHRISEVFDCWFESGSMPYAQVHYPFENKREFEDAFPADFIAEGIDQTRGWFYTLLVLATALFGQPPFKNVIVNGLVLASDGQKMSKRKKNYPDPVSIIQKYGADALRLYLINSPVVRAENLRFKEEGVRDVLKDVLLPWYNAYRFLIQNVLRLQKEEEIEFLYNENTVRESPNITDRWILSFMQSLIGFFETEMAAYRLYTVVPRLVKFVDILTNWYVRMNRRRLKGENGMEDCVMALETLFSVLLSLCRLMAPYTPFLTELMYQNLKVLIDPVSVQDKDTLSIHYLMLPRVREELIDKKTESAVSQMQSVIELGRVIRDRKTIPIKYPLKEIVVIHQDPEALKDIKSLEKYIIEELNVRKVTLSTDKNKYGIRLRAEPDHMVLGKRLKGAFKAVMTSIKQLSSEELEQFQKTGTIVVEGHELHDEDIRLMYTFDQATGGTAQFEAHSDAQALVLLDVTPDQSMVDEGMAREVINRIQKLRKKCNLVPTDEITVYYKAKSEGTYLNSVIESHTEFIFTTIKAPLKPYPVSPSDKVLIQEKTQLKGSELEITLTRGSSLPGPACAYVNLNICANGSEQGGVLLLENPKGDNRLDLLKLKSVVTSIFGVKNTELAVFHDETEIQNQTDLLSLSGKTLCVTAGSAPSLINSSSTLLCQYINLQLLNAKPQECLMGTVGTLLLENPLGQNGLTHQGLLYEAAKVFGLRSRKLKLFLNETQTQEITEDIPVKTLNMKTVYVSVLPTTADF

Assays:
[1] = system: GFP-14-3-3β and its binding proteins; experiment: GFP-14-3-3β co-IP with LC-MS/MS label-free quantification, untreated versus PP1c-treated; design: species or system human; conditions: GFP-14-3-3β co-IP LC-MS/MS; PP1 vs untreated; student's t-test; label-free quantification, 3 replicates each
[2] = system: GFP-14-3-3β; experiment: GFP-14-3-3β co-IP with LC-MS/MS, untreated GFP-14-3-3β versus GFP control (14-3-3 interactome); assay type: binding, human; conditions: GFP-14-3-3β co-IP LC-MS/MS; untreated vs GFP; student's t-test; label-free quantification, 3 replicates each

Molecule | Difference (log2), PP1 vs untreated [1] [log2] | Difference (log2), untreated vs GFP [2] [log2]
B1 | -0.2799 | 0.8033
B2 | -0.2879 | 1.582
B3 | -0.2929 | 0.9621
B4 | -0.3133 | 0.2278
B5 | -0.3214 | 1.23
B6 | -0.336 | -0.1582
